Reference: the supplement of paper PMC7125110
± gives the standard error. For part of these data: Variants at the floor of the assay were thinned out.

B1: glmS ribozyme (parent)
chain: AUAAAAGCGCCAGAACUACAGAAAUGUAGUUGACGAGGAGGAGGUUUAUCGAAUUUUCGGCGGAUGCCUCCAAA

Columns and labels:
Settings in all cases: with glucosamine-6-phosphate
glucosamine-6-phosphate [1] = variants of: B1; test: kcat; higher = faster cleavage; RNA array
Method in brief: (§1)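 Barcoded ribozyme variants on sequenced MiSeq chips were transcribed in situ by E. coli RNA polymerase and followed at 37 °C through a hybridised Cy3 probe. Glucosamine-6-phosphate at 40 μM to 10 mM in HEPES/KCl/Mg(OAc)2 buffer was flowed in, and tiles were imaged over ~14 h. Signals were normalised to baseline and to non-cleaving reference variants, and per-tile medians were fit to one- or two-exponential decays to give kobs. Weighted Michaelis–Menten fits across concentrations gave kcat and KM.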

glucosamine-6-phosphate [2] = variants of: B1; test: self-cleavage kobs at 160 uM GlcN6P; higher = faster cleavage; RNA array
Method in brief: as §1

glucosamine-6-phosphate [3] = variants of: B1; test: self-cleavage kobs at 640 uM GlcN6P; higher = faster cleavage; RNA array
Method in brief: as §1

glucosamine-6-phosphate [4] = variants of: B1; test: self-cleavage kobs at 2500 uM GlcN6P; higher = faster cleavage; RNA array
Method in brief: as §1

glucosamine-6-phosphate [5] = variants of: B1; test: self-cleavage kobs at 10000 uM GlcN6P; higher = faster cleavage; RNA array
Method in brief: as §1

glucosamine-6-phosphate [6] = variants of: B1; test: KM; higher = weaker cofactor use; RNA array
Method in brief: as §1

glucosamine-6-phosphate [7] = variants of: B1; test: self-cleavage kobs at 40 uM GlcN6P; higher = faster cleavage; RNA array
Method in brief: as §1

Variant | kcat (glucosamine-6-phosphate [1]) [s⁻¹] | self-cleavage kobs at 160 uM GlcN6P (glucosamine-6-phosphate [2]) [s⁻¹] | self-cleavage kobs at 640 uM GlcN6P (glucosamine-6-phosphate [3]) [s⁻¹] | self-cleavage kobs at 2500 uM GlcN6P (glucosamine-6-phosphate [4]) [s⁻¹] | self-cleavage kobs at 10000 uM GlcN6P (glucosamine-6-phosphate [5]) [s⁻¹] | KM (glucosamine-6-phosphate [6]) [µM] | self-cleavage kobs at 40 uM GlcN6P (glucosamine-6-phosphate [7]) [s⁻¹]
G29U C58A | 0.000289 ± 9.9e-05 | 3.39e-05 ± 1.2e-05 | 5.13e-05 ± 1e-05 | 0.000103 ± 1e-05 | 0.000231 ± 3e-05 | – | –
A6U A15U | 3.81e-05 ± 2.5e-06 | – | – | 2.31e-05 ± 8.8e-06 | 3.44e-05 ± 7e-06 | 1260 ± 360 | –
U47G U65G | 0.00249 ± 0.00033 | 0.000153 ± 2e-05 | 0.000451 ± 7e-05 | 0.00107 ± 0.00015 | 0.0021 ± 0.00028 | 2760 ± 530 | 3.08e-05 ± 1.1e-05
G40C A64G | 0.00107 ± 0.00027 | 4.29e-05 ± 1.9e-05 | – | 0.000837 ± 0.00017 | 0.000811 ± 9.3e-05 | – | –
U46A C71A | 0.00108 ± 0.00054 | – | 0.000259 ± 5.1e-05 | 0.000566 ± 0.00015 | 0.000724 ± 0.00023 | – | –
A42U U45A | 0.000149 ± 2.4e-05 | – | 3.93e-05 ± 1e-05 | 0.000134 ± 2.6e-05 | 0.000123 ± 1.6e-05 | 1500 ± 680 | –
G44U U54A | 0.000233 ± 6.1e-05 | – | 0.000111 ± 3.6e-05 | 0.000132 ± 4.1e-05 | 0.000252 ± 6.1e-05 | – | –
U30A A53C | 0.00232 ± 0.00044 | 0.000107 ± 2.5e-05 | 0.000357 ± 6.9e-05 | 0.000882 ± 0.00014 | 0.00196 ± 0.00049 | 3590 ± 950 | –
A14C U69G | 4.01e-05 ± 6.9e-06 | 6.28e-05 ± 2.1e-05 | 5.28e-05 ± 2.2e-05 | 4.06e-05 ± 9.1e-06 | 3.03e-05 ± 1.2e-05 | – | –
U57G U69C | 1.77e-05 ± 7.2e-06 | – | – | – | – | – | –
U55C C61G | < 1e-05 | – | – | – | < 1e-05 | – | < 1e-05
A48C U55A | 0.000411 ± 0.0001 | – | 8.73e-05 ± 1.8e-05 | 0.000276 ± 4.6e-05 | 0.000272 ± 8.7e-05 | 2110 ± 920 | –
A12G U69A | 0.000112 ± 2.3e-05 | – | 4.87e-05 ± 2.1e-05 | 0.000171 ± 5.2e-05 | 9.85e-05 ± 1.9e-05 | – | –
G32C A53U | 0.000101 ± 5.9e-06 | < 1e-05 | – | 2.59e-05 ± 6.8e-06 | 5.79e-05 ± 5e-06 | 7510 ± 930 | < 1e-05
C50U U55A | 8.88e-05 ± 8.3e-06 | – | 2.43e-05 ± 9.1e-06 | 4.32e-05 ± 6.8e-06 | 7.37e-05 ± 9.9e-06 | 2350 ± 570 | –
A15U C16G G59C G60A C67U | < 1e-05 | – | – | – | – | – | –
G13U U45A | 0.00214 ± 0.00039 | 0.000142 ± 5.1e-05 | 0.000543 ± 0.00015 | 0.00117 ± 0.00036 | – | 2010 ± 490 | 4.66e-05 ± 2.1e-05
